Source: IntAct's records for PubMed 16628219

B1: Ras GTPase-activating-like protein IQGAP1 (Mus musculus), Q9JKF1 (parent)
chain: MSAAEEVDGLGVVRPHYGSVLDNERLTAEEMDERRRQNVAYEYLCHLEEAKRWMEACLGEDLPPTTELEEGLRNGVYLAKLGNFFSPKVVSLKKIYDREQTRYKATGLHFRHTDNVIQWLNAMDEIGLPKIFYPETTDIYDRKNMPRCIYCIHALSLYLFKLGLAPQIQDLYGKVDFTEEEINNMKIELEKYGIQMPAFSKIGGILANELSVDEAALHAAVIAINEAIDRRVAADTFTALKNPNAMLVNLEEGLAPTYQDVLYQAKQDKMTNAKNRTENSDRERDVYEELLTQAEIQGNVNKVNTSSALANISLALEQGCAVTLLKALQSLALGLRGLQTQNSDWYMKQLQSDLQQKRQSGQTDPLQKEEVQAGVDAANSAAQQYQRRLAAVAAINAAIQKGIAEKTVLELMNPEAQLPQVYPFAADLYQKELATLQQQSPEHSLTHPELTVAVEMLSSVALINRALESGDMTTVWKQLSSSVTGLTNIEEENCQRYLDELMKLKAQAHAENNAFITWNDIQACVDHVNLVVHEEHERILAIGLINEALDEGDAQKTLQALQIPAAKLEGVLAEVAQHYQDTLIRAKREKAQETQDESAVLWLDEIQGGIWQSNKDTQEAQRFALGISAINEAVDSGDVGRTLSALRSPDVGLYGVIPECGETYQSDLAEAKKKRLAAGDNNSKWVKHWVKGGYHYYHNLETQAGGWAEPPDFVQNSVQLSREEIQSSISGVTAAYNREQLWLANEGLITKLQACCRGYLVRQEFRSRMNFLKKQIPAITCIQSQWRGYKQKKAYQDRLAYLHSHKDEVVKIQSLARMHQARKRYRDRLQYFRDHINDIIKIQAFIRANKARDDYKTLINAEDPPMIVVRKFVHLLDQSDQDFQEELDLMKMREEVITLIRSNQQLENDLNLMDIKIGLLVKNKITLQDVVSHSKKLTKKNKEQLSDMMMINKQKGGLKALSKEKREKLEAYQHLFYLLQTNPTYLAKLIFQMPQNKSTKFMDSVIFTLYNYASNQREEYLLLRLFQTALQEEIKSKVDQIQEIVTGNPTVIKMVVSFNRGARGQNALRQILAPVVKEIMDDKSLNIKTDPVDIYKSWVNQMESQTGEASKLPYDVTPEQALSHEEVKTRLDNSIRNMRAVTDKFLSAIVSSVDKIPYGMRFIAKVLKDSLHEKFPDAGEDELLKIIGNLLYYRYMNPAIVAPDAFDIIDLSAGGQLTTDQRRNLGSIAKMLQHAASNKMFLGDNAHLSIINEYLSQSYQKFRRFFQVACDVPELQDKFNVDEYSDLVTLTKPVIYISIGEIINTHTLLLDHQDAIAPEHNDPIHELLDDLGEVPTIESLIGESCGNSNDPNKEALAKTEVSLTLTNKFDVPGDENAEMDARTILLNTKRLIVDVIRFQPGETLTEILETPATNEQEAEHQRAMQRRAIRDAKTPDKMKKSKPMKEDNNLSLQEKKEKIQTGLKKLTELGTVDPKNRYQELINDIAKDIRNQRRYRQRRKAELVKLQQTYSALNSKATFYGEQVDYYKSYIKTCLDNLASKGKVSKKPREMKGKKSKKISLKYTAARLHEKGVLLEIEDLQANQFKNVIFEIGPTEEVGDFEVKAKFMGVQMETFMLHYQDLLQLQYEGVAVMKLFDRAKVNVNLLIFLLNKKFYGK
B2: Gag polyprotein (Moloney murine leukemia virus (isolate Shinnick) (MoMLV)), P03332 (parent)
chain: MGQTVTTPLSLTLGHWKDVERIAHNQSVDVKKRRWVTFCSAEWPTFNVGWPRDGTFNRDLITQVKIKVFSPGPHGHPDQVPYIVTWEALAFDPPPWVKPFVHPKPPPPLPPSAPSLPLEPPRSTPPRSSLYPALTPSLGAKPKPQVLSDSGGPLIDLLTEDPPPYRDPRPPPSDRDGNGGEATPAGEAPDPSPMASRLRGRREPPVADSTTSQAFPLRAGGNGQLQYWPFSSSDLYNWKNNNPSFSEDPGKLTALIESVLITHQPTWDDCQQLLGTLLTGEEKQRVLLEARKAVRGDDGRPTQLPNEVDAAFPLERPDWDYTTQAGRNHLVHYRQLLLAGLQNAGRSPTNLAKVKGITQGPNESPSAFLERLKEAYRRYTPYDPEDPGQETNVSMSFIWQSAPDIGRKLERLEDLKNKTLGDLVREAEKIFNKRETPEEREERIRRETEEKEERRRTEDEQKEKERDRRRHREMSKLLATVVSGQKQDRQGGERRRSQLDRDQCAYCKEKGHWAKDCPKKPRGPRGPRPQTSLLTLDD
B3: Gag polyprotein (Moloney murine leukemia virus (isolate Shinnick) (MoMLV)), P03332 (parent)
chain: B2 chain
partner: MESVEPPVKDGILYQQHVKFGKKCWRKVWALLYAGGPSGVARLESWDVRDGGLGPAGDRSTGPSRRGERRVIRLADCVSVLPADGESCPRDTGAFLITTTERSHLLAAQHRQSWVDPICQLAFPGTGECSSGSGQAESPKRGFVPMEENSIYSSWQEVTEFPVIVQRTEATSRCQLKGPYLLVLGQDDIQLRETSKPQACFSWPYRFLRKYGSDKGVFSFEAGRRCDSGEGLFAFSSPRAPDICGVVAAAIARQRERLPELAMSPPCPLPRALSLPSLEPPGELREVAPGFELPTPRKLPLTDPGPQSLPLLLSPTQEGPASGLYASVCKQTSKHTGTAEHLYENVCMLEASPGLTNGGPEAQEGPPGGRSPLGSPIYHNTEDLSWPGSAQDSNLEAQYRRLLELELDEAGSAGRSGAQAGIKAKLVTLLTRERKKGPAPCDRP

Variants of: B1
Settings: with gag_mlvms gag

| Variant | effect of a mutation on the interaction |
| --- | --- |
| N1514A;S1515A;K1516A | disrupting interaction |

Variants of: B2
Settings: with iqga1_mouse Iqgap1, Q9JKF1

| Variant | effect of a mutation on the interaction |
| --- | --- |
| Q63A;V64A;K65A | disrupting interaction |

Variants of: B2
Settings: with iqga1_mouse Iqgap1, Q9JKF1
Remark: another data set of the same source

| Variant | effect of a mutation on the interaction |
| --- | --- |
| L60A;I61A;T62A | disrupting interaction |

Variants of: B3
Settings: with dok3_mouse Dok3, Q9QZK7

| Variant | effect of a mutation on the interaction |
| --- | --- |
| F69A;S70A;P71A | disrupting interaction |

Variants of: B3
Settings: with dok3_mouse Dok3, Q9QZK7
Remark: another data set of the same source

| Variant | effect of a mutation on the interaction |
| --- | --- |
| L89A;F91A;D92A | disrupting interaction |

Variants of: B3
Settings: with dok3_mouse Dok3, Q9QZK7
Remark: another data set of the same source

| Variant | effect of a mutation on the interaction |
| --- | --- |
| G72A;P73A;H74A | disrupting interaction |
